Laboratory results as given in the DeepSol protein solubility set.

assay: soluble on expression in E. coli; label from the status in PepcDB or PDB records

Sequence	soluble on expression in E. coli
MGSDKIHHHHHHMTPRELTCDETLAEMARVLTVEAAALTQMASEVGDPQLKAVEILEAMEGRVIVSGVGKSGHIGNKIAATLASTGTPAQFVHATEASHGDLGMVTPRDVCLVISNSGETSELADIVTYSRRFAIPLIAITRKADSTLATQADVVLLLPDAPEACGIGMAPTTSTTATLAMGDALAVALMKRRGFEREDFKVFHPGGKLGAQLMLVDGLMHTGEALPLVAPETPMTEALLIMTAKGFGLAGLVEGGRLTGIITDGDLRRNMDGLMARSAGEVATRGPKVIRRGSLASEALHDMNSRKISALFVLDNEDRVAGLLHIHDCLRAGLA	not soluble
MSATTTNLKEAIVNRRSIRKVTKNDAITKERIEEVLKTALHAPTSFNMQSGRMVVLMDGEHEKFWDIVKETLRARVPAENFEATVERLKGFHAGVGTVLFFEDQATVEKMQENAPLYKDQFPFWSHQGNAMLQHTVWMLLSAEGIGASLQHYNPIVDAEVKETWNIPAEWSLVGQMPFGEPNEQPAERTFLPTEDVVKFY	soluble
MSTDTSGVGVREIDAGALPTRYARGWHCLGVAKDYLEGKPHGVEAFGTKLVVFADSHGDLKVLDGYCRHMGGDLSEGTVKGDEVACPFHDWRWGGDGRCKLVPYARRTPRMARTRSWTTDVRSGLLFVWHDHEGNPPDPAVRIPEIPEAASDEWTDWRWNRILIEGSNCRDIIDNVTDMAHFFYIHFGLPTYFKNVFEGHIASQYLHNVGRPDVDDLGTSYGEAHLDSEASYFGPSFMINWLHNRYGNYKSESILINCHYPVTQNSFVLQWGVIVEKPKGMSEEMTDKLSRVFTEGVSKGFLQDVEIWKHKTRIDNPLLVEEDGAVYQLRRWYEQFYVDVADIKPEMVERFEIEVDTKRANEFWNAEVEKNLKSREVSDDVPAEQH	soluble
MSLRKIHVTIIAPYEGLAETFKRIQNEFEHLDMTIHIADLQQSLPLLTTEVQAQTDIFISRGGTAKVIRTRTEKPVVEVPISGFDILRMILLIQAEREQTEIIAFENISLSFTKVTELIETDIPITAVMKEEEVEPAIIAAKAAGRKMIVGDAITTSLANKHGLEGILITSGEESVRTALEQADLLGRKMNDSKQEGHHHHHH	soluble
MAKHEQILVLDPPSDLKFKGPFTDVVTTNLKLQNPSDRKVCFKVKTTAPRRYCVRPNSGIIDPGSIVTVSVMLQPFDYDPNEKSKHKFMVQTIFAPPNISDMEAVWKEAKPDELMDSKLRCVFEMPNENDKLND	soluble
MGSDKIHHHHHHMGPINFEKAKKEREQAVIARLIDIRKAQQEYRSLHHGMYTEHFDTLIDFVKNQKLPFVMKVGQLTDDQLESGLTEKKAMAIINKAKKTGKYDEVKKNGLENFKRDTMWVAVMDTIYPKGFNADSMKYIPYGNGAIFEMNVKNDTAKSGAPVYLFEVKAPYETYLGGLDRQEIINLKDLNEKLGRYSGLMVGSIDNPNNGAGNWE	not soluble
GSHMSHLDNTMAIRLLPLPVRAQLCAHLDALDVWQQLATAVKLYPDQVEQISSQKQRGRSASNEFLNIWGGQYNHTVQTLFALFKKLKLHNAMRLIKDYVSEDLHKYI	soluble
MSFIDPYQHIIVEHQYSHKFTVVVLRATKVTKGAFGDMLDTPDPYVELFISTTPDSRKRTRHFNNDINPVWNETFEFILDPNQENVLEITLMDANYVMDETLGTATFTVSSMKVGEKKEVPFIFNQVTEMVLEMSLEV	soluble
MEKLHQCYWKSGEPQSDDIEASRMKRAAAKHLIERYYHQLTEGCGNEACTNEFCASCPTFLRMDNNAAAIKALELYKINAKLCDPHPSKKGASSAYLENSKGAPNNSCSEIKMNKKGARIDFKDVTYLTEEKVYEILELCREREDYSPLIRVIGRVFSSAEAL	soluble
